# Laboratory results: patent US20170022273A1 (SORRENTO THERAPEUTICS, published 2017)
# Changes are numbered by the printed parent chain.
# B1: L3C5 (antibody, V domains shown)
# VH: QVQLVQSGSELKKPGASVKVSCKASGYTFTNYYMHWVRQAPGQGLEWMGIINPSGGATNYAQKFQGRVTMTRDTSTSTVYMELSSLRSEDTAVYYCARDSGYDLGYGMDVWGQGTLVTVSS
# VL: QSVLTQPASVSGSPGQSITISCTGTSSDVGGYNYVSWYQQHPGKAPKLMIYDVSNRPSGASNRFSGSKSGNTASLTISGLQAEDEADYYCSSYTNRNTLLFGGGTKLTVL
# notes: Captured on an anti-human Fc antibody chip in the Biacore assay, so a whole antibody with a human Fc; also called LAG3 antibody L3C5; 13
# B2: L33H11 (antibody, V domains shown)
# VH: QVQLVQSGAEVKKPGASVKVSCKASGYTFTSYYMHWVRQAPGQGLEWMGIINPSAGSTSYAQKFQGRVTMTRDTSTSTVYMELSSLRSEDTAVYYCARELMATGGFDYWGQGTLVTVSS
# VL: B1 VL with Q1L, S2P, S54T, A60V, N95S, R96S, K106Q
# notes: Tested as a fully human IgG with a lambda light chain; also called anti-hLAG3 antibody L33H11
# B3: L35G6 (antibody, V domains shown)
# VH: B2 VH
# VL: QAGLTQPASVSGSPGQSITISCTGSSSDVGGYSYVSWYQKHPGKAPKLMIYDVTNRPSGVSNRFSGSKSGNTASLTISGLQAEDEADYYCSTYTRSNTLVFGPGTKVTVL
# notes: Tested as a fully human IgG with a lambda light chain (detected with anti-human Lambda HRP); also called anti-hLAG3 antibody L35G6
# B4: L32D10 (antibody, V domains shown)
# VH: B2 VH
# VL: B1 VL with A8P, V10A, I18V, N33D, P42Q, A60V, N95S, R96S, N97T, L100V
# notes: Tested as a fully human IgG with a lambda light chain; also called anti-hLAG3 antibody L32D10
# B5: L35D4 (antibody, V domains shown)
# VH: B2 VH
# VL: QSVLTQPPSASGSPGQSVTISCTGTSSDVGGYNYVSWYQQYPGKAPRLMIFEVTERASGVPDRFSGSKSGNTASLTVSGLQTEDEAVYFCSSYSGSNNPGAMFGGGTKLTVL
# notes: Tested as a fully human IgG with a lambda light chain; also called anti-hLAG3 antibody L35D4
# B6: L32A9 (antibody, V domains shown)
# VH: B2 VH
# VL: QSVVTQPPSVSAAPGQKVTISCSGSSSNIGNNYVSWYQQLPGTAPKLLIYDNNKRHSGIPDRFSGSTSDTSATLGITRLQTGDEADYYCGTWDSSLSAYVFGTGTKVTVL
# notes: Tested as a fully human IgG with a lambda light chain; also called anti-hLAG3 antibody L32A9
# B7: L32A4 (antibody, V domains shown)
# VH: B2 VH
# VL: QSVLTQPASVSGSPGQSITISCTGTSSDIGAYNFVSWYQQHPGKAPKLMIYGVSNRPSGVSSRFSGSKSGSTASLTISGLQAEDEADYYCSSYTTSGSAVFGTGTKLTVL
# notes: Tested as a fully human IgG with a lambda light chain; also called anti-hLAG3 antibody L32A4
# How the values were obtained:
# [1] = biological target: T1, Recombinant human LAG3/His (human, UniProt P18627 23-450); assay: Biacore SPR, antibody captured on anti-human Fc CM5 chip, LAG3/His as analyte, 1:1 Langmuir fit
# T1 construct: Analyte in the Biacore assay, serially diluted in HBS-EP; not shown: His tag
# T1 sequence (looked up): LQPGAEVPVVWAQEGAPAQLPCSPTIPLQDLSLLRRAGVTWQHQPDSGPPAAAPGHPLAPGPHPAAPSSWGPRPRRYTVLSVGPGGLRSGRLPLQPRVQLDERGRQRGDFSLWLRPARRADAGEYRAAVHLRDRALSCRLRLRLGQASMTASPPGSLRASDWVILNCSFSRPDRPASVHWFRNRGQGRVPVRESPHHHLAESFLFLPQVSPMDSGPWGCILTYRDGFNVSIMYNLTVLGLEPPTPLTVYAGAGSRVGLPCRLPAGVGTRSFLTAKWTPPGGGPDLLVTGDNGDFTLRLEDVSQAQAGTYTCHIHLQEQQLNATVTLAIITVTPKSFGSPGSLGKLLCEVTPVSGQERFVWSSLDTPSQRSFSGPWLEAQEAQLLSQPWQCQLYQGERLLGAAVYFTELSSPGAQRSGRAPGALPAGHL
# Procedure: The binding affinity of antibody L3C5 for human LAG3 was also tested using a BiaCore assay. […] Biacore was used to measure the affinity of LAG3 antibody L3C5. Anti-human Fc antibody (GE, BR-1008-39) was immobilized on CM5 sensor chip to approximately 5000 RU using standard NHS/EDC coupling methodology. Antibody (approximately 2 ug/ml) were captured for 60 s at a flow rate 10 uL/min. Recombinant human LAG3/His was serially diluted in running buffer (HBS-EP). All measurements were conducted with a flow rate of 30 μL/min Surfaces were regenerated with 3M MgCl2 (from human antibody kit) for 60 s. A 1:1 (Langmuir) binding model was used to fit the data.
# [2] = biological target: T2, recombinant human LAG3/Fc (human, UniProt P18627 23-450); assay: ELISA, plate coated with 2 ug/mL recombinant human LAG3/Fc, IgG about 5ug/ml
# T2 construct: Coated on the ELISA plate at 2 ug/mL; not shown: Fc part of the LAG3/Fc fusion
# T2 sequence (looked up): T1 sequence (looked up)
# Procedure: (§1) An analysis of the cross-reactivity of various LAG3 antibodies to recombinant mouse LAG3 and human LAG3 was also performed. A Maxisorb ELISA plate was coated with 2 ug/mL recombinant human, and mouse LAG3/Fc (blank: PBS). Incubated overnight at 4° C. The plate was washed 3 times with PBS-Tween (PBST), then blocked with Casein blocking buffer for 1 hour at room temperature. Next, IgGs diluted in casein (about 5ug/ml) were added, and incubated 30 min with shaking. The plate was washed 3 times with PBST. Horseradish peroxidase (HRP)-conjugated goat anti-human Lambda HRP (1:1000 in casein) was added, then 3,3′,5,5′-Tetramethylbenzidine (TMB) was added as substrate and developed 30 min 2M H2SO4 was used to stop the reaction and the OD was read at 450 nm Anti-AIP antibody C7 was used as a control antibody.
# [3] = biological target: T3, recombinant mouse LAG3/Fc (mouse, UniProt Q61790 24-442); assay: ELISA, plate coated with 2 ug/mL recombinant mouse LAG3/Fc, anti-human Lambda HRP detection
# T3 construct: Coated on the ELISA plate at 2 ug/mL; not shown: Fc part of the LAG3/Fc fusion
# T3 sequence (looked up): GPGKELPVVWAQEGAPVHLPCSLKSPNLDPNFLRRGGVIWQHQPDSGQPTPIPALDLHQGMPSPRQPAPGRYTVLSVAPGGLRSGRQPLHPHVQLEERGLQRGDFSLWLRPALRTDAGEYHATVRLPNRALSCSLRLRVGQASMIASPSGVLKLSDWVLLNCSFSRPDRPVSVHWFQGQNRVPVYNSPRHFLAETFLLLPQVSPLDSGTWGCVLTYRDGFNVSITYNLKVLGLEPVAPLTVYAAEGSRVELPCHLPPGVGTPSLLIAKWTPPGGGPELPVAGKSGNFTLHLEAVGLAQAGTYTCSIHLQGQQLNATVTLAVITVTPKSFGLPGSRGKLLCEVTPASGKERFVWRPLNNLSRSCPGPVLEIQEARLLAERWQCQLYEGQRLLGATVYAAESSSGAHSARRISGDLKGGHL
# Procedure: as §1
Binder,Ka [1] [M⁻¹],Kd [1] [nM],koff [1] [s⁻¹],kon [1] [M⁻¹ s⁻¹],binding result [2],binding result [3]
B1,6.6e+06,152,0.0717,473000,–,–
B2,–,–,–,–,binds,no binding (tested: about 5ug/ml)
B3,–,–,–,–,binds,no binding (tested: about 5ug/ml)
B4,–,–,–,–,binds,no binding (tested: about 5ug/ml)
B5,–,–,–,–,binds,no binding (tested: about 5ug/ml)
B6,–,–,–,–,binds,no binding (tested: about 5ug/ml)
B7,–,–,–,–,binds,no binding (tested: about 5ug/ml)
